B1: Hef from Thermoplasma acidophilum, wild-type (natural protein, Thermoplasma acidophilum DSM 1728, UniProt Q9HI46 1-508, looked up)
chain: MIIQPREYQLNVFKNSIGQNTLIVMPTGLGKTIIAAMFIEKFYGEKKRSLMVAPTKPLVLQHARTIADSTGISENEIGVFTGEIDAEERELIWVTKKIFVSTPQVVFNDMRSGILDITKFDLIIFDEAHRAVGNYAYVDIAQEYLKYKKKLIIGLTASPGSSREKIDEIMANLGISKVIAKTEMDEDVRKYVKTIDVKLIKIREPDGTKEIVNMIDAVMSKLLEPVKSSNFSIGRSRKDLVATMQKVINSAKEDRSLFQLVRRITAAIRLDYLKEYIETQGIDVALHYLEEMEKSQDPGIRRAISMLSSLDEFATLRTKLMLAADGYTNPKMEKTLSIMESNVHGNARAIVFTHYRITSDLLMDYIQKNGTSLKPVRFIGQADRGSDEGLSQDQQKKIIEDFKNNVYNVLIATSIAEEGLDIPDTDFVIFYEAVPSEIRYIQRKGRTGRSRNGQVYILVFENSRDMAYYYSSIRKVSRMTQTIEDLRQESGSDEKEEKSDVQKTIFDF
B2: PCNA from Thermoplasma acidophilum (natural protein, Thermoplasma acidophilum DSM 1728, UniProt Q9HJQ0 1-246, looked up)
chain: MIRLNLSVKNLKEITDLLSTIVSEAKFRVDENGMSVTAVDPAHVAMIRLEVPKEAFVEFHTDGQEEIALDIDRLKSVIRLASSSENVGITKDGEKLKFELGTINKSISLLDPSTIVTPKIPNITSEYYAVLKKSDFERGLRAAEDISDSIRFTLSQDGFKAYSHSESEESEMILPKDLITDMSCNTTIKSSYPLEYLLKFIKAISSTDSLKLSFRDDYPLSVEFYLDQNPGAKIKGLFLLAPRMEQ

How the values were obtained:
[1] = target: Flag-FANCM PIP-box mutant (L8R/W12S), full length (human) (UniProt Q8IYD8); test: proximity ligation
Chain of Flag-FANCM PIP-box mutant (L8R/W12S), full length (human) (Q8IYD8 whole entry L8R/W12S): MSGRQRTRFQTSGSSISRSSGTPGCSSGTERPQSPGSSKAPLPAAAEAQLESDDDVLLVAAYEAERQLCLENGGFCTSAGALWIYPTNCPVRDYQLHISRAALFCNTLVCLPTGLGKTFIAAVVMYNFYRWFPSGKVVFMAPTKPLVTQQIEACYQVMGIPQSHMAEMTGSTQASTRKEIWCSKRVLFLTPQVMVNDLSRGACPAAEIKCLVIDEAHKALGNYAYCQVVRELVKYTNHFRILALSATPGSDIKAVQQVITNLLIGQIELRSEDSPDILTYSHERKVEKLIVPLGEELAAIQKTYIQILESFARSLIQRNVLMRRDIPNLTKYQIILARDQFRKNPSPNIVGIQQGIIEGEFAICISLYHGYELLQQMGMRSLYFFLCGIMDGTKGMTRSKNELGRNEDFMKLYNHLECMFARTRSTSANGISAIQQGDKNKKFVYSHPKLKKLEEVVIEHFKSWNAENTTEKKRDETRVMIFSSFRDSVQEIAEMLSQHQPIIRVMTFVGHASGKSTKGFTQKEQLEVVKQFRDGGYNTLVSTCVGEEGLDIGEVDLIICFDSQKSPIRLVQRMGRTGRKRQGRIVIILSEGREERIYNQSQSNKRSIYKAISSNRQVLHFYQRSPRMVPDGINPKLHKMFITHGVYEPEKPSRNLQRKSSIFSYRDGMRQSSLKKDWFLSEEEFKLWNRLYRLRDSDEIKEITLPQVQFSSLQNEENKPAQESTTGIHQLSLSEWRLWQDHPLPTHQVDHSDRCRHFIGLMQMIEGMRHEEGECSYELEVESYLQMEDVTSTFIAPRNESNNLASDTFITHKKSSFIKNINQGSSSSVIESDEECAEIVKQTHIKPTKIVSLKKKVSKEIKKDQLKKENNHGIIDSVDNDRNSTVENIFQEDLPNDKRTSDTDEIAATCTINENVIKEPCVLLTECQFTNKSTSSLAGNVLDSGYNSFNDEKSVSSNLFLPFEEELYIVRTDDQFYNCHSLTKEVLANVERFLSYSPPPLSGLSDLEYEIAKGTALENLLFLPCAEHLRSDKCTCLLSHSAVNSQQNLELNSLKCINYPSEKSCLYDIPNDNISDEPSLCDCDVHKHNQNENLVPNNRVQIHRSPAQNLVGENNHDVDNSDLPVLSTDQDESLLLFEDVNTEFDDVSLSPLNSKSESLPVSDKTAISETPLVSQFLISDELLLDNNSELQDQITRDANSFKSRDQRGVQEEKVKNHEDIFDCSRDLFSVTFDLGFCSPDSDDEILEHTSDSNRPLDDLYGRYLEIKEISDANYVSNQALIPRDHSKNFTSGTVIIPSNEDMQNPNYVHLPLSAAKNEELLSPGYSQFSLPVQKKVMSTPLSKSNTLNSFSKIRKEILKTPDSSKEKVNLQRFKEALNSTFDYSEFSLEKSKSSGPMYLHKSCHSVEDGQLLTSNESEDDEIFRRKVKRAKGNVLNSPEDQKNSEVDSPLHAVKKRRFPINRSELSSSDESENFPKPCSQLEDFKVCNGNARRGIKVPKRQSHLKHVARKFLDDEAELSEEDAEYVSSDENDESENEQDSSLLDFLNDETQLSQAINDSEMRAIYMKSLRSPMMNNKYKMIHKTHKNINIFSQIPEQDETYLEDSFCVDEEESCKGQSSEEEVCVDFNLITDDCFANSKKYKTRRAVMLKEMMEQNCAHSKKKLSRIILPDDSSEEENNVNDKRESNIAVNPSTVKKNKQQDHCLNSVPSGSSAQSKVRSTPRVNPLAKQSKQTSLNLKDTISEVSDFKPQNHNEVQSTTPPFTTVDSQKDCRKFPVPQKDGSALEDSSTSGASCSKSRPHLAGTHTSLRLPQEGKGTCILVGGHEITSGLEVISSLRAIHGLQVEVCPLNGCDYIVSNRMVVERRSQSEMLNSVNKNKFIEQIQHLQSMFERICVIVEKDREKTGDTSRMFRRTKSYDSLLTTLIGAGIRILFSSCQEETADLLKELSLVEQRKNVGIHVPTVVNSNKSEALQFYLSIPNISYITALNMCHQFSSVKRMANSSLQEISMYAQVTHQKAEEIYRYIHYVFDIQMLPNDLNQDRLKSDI

[2] = target: B2; test: SAXS
[3] = target: B2; test: SEC
[4] = target: the molecule itself; test: SEC
[5] = target: B1; test: ITC
[6] = target: Human PCNA, recombinant (human, UniProt P12004 1-261); test: ITC
Chain of Human PCNA, recombinant (P12004 whole entry): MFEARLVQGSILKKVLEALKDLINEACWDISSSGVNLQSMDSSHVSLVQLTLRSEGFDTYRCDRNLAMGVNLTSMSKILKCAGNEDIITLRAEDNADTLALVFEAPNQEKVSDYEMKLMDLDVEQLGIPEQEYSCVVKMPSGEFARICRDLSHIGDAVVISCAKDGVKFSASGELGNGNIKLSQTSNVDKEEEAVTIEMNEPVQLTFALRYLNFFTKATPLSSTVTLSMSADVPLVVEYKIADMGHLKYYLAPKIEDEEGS

**Q.** Which PLA signal relative to wildtype FANCM (HU-treated cells) [1] does the source give for “PCNA, endogenous (from UniProt P12004 1-261) (natural protein)” here?
**A.** 50%

**Q.** For B1, which “stoichiometry N” value [2] is on record?
**A.** 3 taHef per taPCNA trimer

**Q.** What about the “stoichiometry N” value [3] of the same molecule?
**A.** 3 taHef monomers per taPCNA homotrimer

**Q.** Which results are given for B2?
**A.** stoichiometry N [4]: 3; Kd [5]: 1 µM

**Q.** Which Kd [6] does the source give for MSGRQRTLFQTWGSSIS (peptide, UniProt Q8IYD8 1-17, looked up) [hsFANCM 1-17 wildtype peptide] here?
**A.** 13 µM

— article PMC4838364 (Nucleic Acids Research, 2016)
